Experimental data from the PETadex activity labels.

Columns and labels:
PET [1] = assay: Proxy for plastic degradation [Released monomer concentration (HPLC/LC-MS) (TPA+EG)]; settings: pH 8, 70 °C, part of the chain shown
PET [2] = assay: Proxy for plastic degradation [Released monomer concentration (HPLC/LC-MS) (Total aromatic products)] (nmol/(min*cm²)); settings: pH 9
PET [3] = assay: Proxy for plastic degradation [Released monomer concentration (HPLC/LC-MS) (TPA+MHET)]; settings: pH 9

B1: unnamed (protein)
chain: QLGAIENGLESGSANACPDAILIFARGSTEPGNMGITVGPALANGLESHIRNIWIQGVGGPYDAALATNFLPRGTSQANIDEGKRLFALANQKCPNTPVVAGGYSQGAALIAAAVSELSGAVKEQVKGVALFGYTQNLQNRGGIPNYPRERTKVFCNVGDAVCTGTLIITPAHLSYTIEARGEAARFLRDRIRA
Proxy for plastic degradation (PET [1]; 0 h): 0% | Proxy for plastic degradation (PET [1]; 24 h): 38% | Proxy for plastic degradation (PET [1]; 48 h): 50% | Proxy for plastic degradation (PET [1]; 72 h): 70% | Proxy for plastic degradation (PET [1]; 96 h): 90%

B2: unnamed (protein)
chain: ANPYERGPNPTDALLEARSGPFSVSEENVSRLSASGFGGGTIYYPRENNTYGAVAISPGYTGTEASIAWLGERIASHGFVVITIDTITTLDQPDSRAEQLNAALNHMINRASSTVRSRIDSSRLAVMGHSMGGGGSLRLASQRPDLKAAIPLTPWHLNKNWSSVTVPTLIIGADLDTIAPVATHAKPFYNSLPSSISKAYLELDGATHVAPNIPNKIIGKYSVAWLKRFVDNDTRYTQFLCPGPRDGLFGEVEEYRSTCPFYPNSSSVDKLAAALE
Proxy for plastic degradation (PET [2]): 6.5

B3: unnamed (protein)
chain: ANPYERGPNPTDALLEARSGPFSVSEENVSRLSASGFGGGTIYYPRENNTYGAVAISPGYTGTEASIAWLGERIASHGFVVITIDTITTLDQPDSRAEQLNAALNHMINRASSTVRSRIDSSRLAVMGHSMGGGGSLRLASQRPDLKAAIPLTPWHLNKNWSSVTVPTLIIGADLDTIAPVATHAKPFYNSLPSSISKAYLELDGATHLAPNIPNKIIGKYSVAWLKRFVDNDTRYTQFLCPGPRDGLFGEVEEYRSTCPFYPNSSSVDKLAAALE
Proxy for plastic degradation (PET [2]): 0.5

B4: unnamed (protein)
chain: ANPYERGPNPTDALLEARSGPFSVSEENVSRLSASGFGGGTIYYPRENNTYGAVAISPGYTGTEASIAWLGERIASHGFVVITIDTITTLDQPDSRAEQLNAALNHMINRASSTVRSRIDSSRLAVMGHSMGGGGSLRLASQRPDLKAAIPLTPWHLNKNWSSVTVPTLIIGADLDTIAPVATHAKPFYNSLPSSISKAYLELDGATHWAPNIPNKIIGKYSVAWLKRFVDNDTRYTQFLCPGPRDGLFGEVEEYRSTCPFYPNSSSVDKLAAALE
Proxy for plastic degradation (PET [2]): 3

B5: unnamed (protein)
chain: MNPFEKGPDPTKTMLEASTGPFTYTTTTVSSTTASGYRQGTIYHPTNVTGPFAAVAVVPGYLASQSSINWWGPRLASHGFVVITIDTNSTSDQPPSRATQLMAALNQLKTFSNTSSHPIYRKVDPNRLGVMGWSMGGGGTLIAARDNPTLKAAIPFAPWNSSTNFSTVSVPTLIIACESDSTAPVNSHASPFYNSLPSTTKKAYLEMNNGSHSCANSGNSNAGLIGKYGVSWMKRFMDNDTRFSPYLCGAPHQADLSLTAIDEYRENCPY
Proxy for plastic degradation (PET [3]; 30 °C): 795 µM | Proxy for plastic degradation (PET [3]; 40 °C): 790 µM
